Results: patent EP2225268B1
Each block holds one molecule with its values, some of them ahead of it.

Experiments:
[1] = target: Wild-type recombinant human NGAL dimer calibrators treated with DTT (human) (UniProt P80188); assay: … sandwich CMIA, capture HYB 211-01, detection acridinium-HYB 211-02; DTT-treated against untreated dimer calibrator; target 1000 ng/mL
[2] = target: Wild-type recombinant human NGAL dimer expressed in CHO cells (human) (UniProt P80188); assay: … sandwich CMIA, capture HYB 211-01, detection acridinium-HYB 211-02; curve fit with monomer calibrators; target 600 ng/mL
[3] = target: Wild-type recombinant human NGAL dimer calibrators treated with DTT (human) (UniProt P80188); assay: as above
[4] = target: Wild-type recombinant human NGAL monomer expressed in CHO cells (human) (UniProt P80188); assay: as above
[5] = target: Native NGAL purchased from Diagnostics Development (Uppsala, Sweden), non-reduced (UniProt P80188); assay: … sandwich CMIA, capture HYB 211-01, detection acridinium-HYB 211-02; non-reduced control sample
[6] = target: Wild-type recombinant human NGAL dimer expressed in CHO cells (human) (UniProt P80188); assay: … sandwich CMIA, capture HYB 211-01, detection acridinium-HYB 211-02; curve fit with monomer calibrators; target 50 ng/mL
[7] = target: Wild-type recombinant human NGAL dimer calibrators treated with DTT (human) (UniProt P80188); assay: as above
[8] = target: Wild-type recombinant human NGAL monomer expressed in CHO cells (human) (UniProt P80188); assay: as above
[9] = target: Wild-type recombinant human NGAL dimer expressed in CHO cells (human) (UniProt P80188); assay: … sandwich CMIA, capture HYB 211-01, detection acridinium-HYB 211-02; calibrator C, NGAL 50 ng/mL
[10] = target: Wild-type recombinant human NGAL dimer calibrators treated with DTT (human) (UniProt P80188); assay: as above
[11] = target: Wild-type recombinant human NGAL monomer expressed in CHO cells (human) (UniProt P80188); assay: as above
[12] = target: Wild-type recombinant human NGAL dimer expressed in CHO cells (human) (UniProt P80188); assay: … sandwich CMIA, capture 1-2322-455, detection acridinium-1-903-430; NGAL 1000 ng/mL
[13] = target: Wild-type recombinant human NGAL monomer expressed in CHO cells (human) (UniProt P80188); assay: as above
[14] = target: Wild-type recombinant human NGAL dimer expressed in CHO cells (human) (UniProt P80188); assay: … sandwich CMIA, capture 1-2322-455, detection acridinium-1-903-430; NGAL Dimer Low, 150 ng/mL dimer calibrator
[15] = target: Wild-type recombinant human NGAL dimer calibrators with TCEP in the reaction mixture (human) (UniProt P80188); assay: … sandwich CMIA, capture 1-2322-455, detection acridinium-1-903-430; TCEP in reaction; curve fit with monomer calibrators; target 50 ng/mL
[16] = target: Wild-type recombinant human NGAL dimer calibrators with TCEP in the reaction mixture (human) (UniProt P80188); assay: … sandwich CMIA, capture 1-2322-455, detection acridinium-1-903-430; TCEP in reaction; curve fit with monomer calibrators; target 250 ng/mL
[17] = target: Wild-type recombinant human NGAL monomer expressed in CHO cells (human) (UniProt P80188); assay: … sandwich CMIA, capture 1-2322-455, detection acridinium-1-903-430; monomer calibrator plus TCEP; curve fit with monomer calibrators; target 1000 ng/mL
[18] = target: Wild-type recombinant human NGAL dimer expressed in CHO cells (human) (UniProt P80188); assay: … sandwich CMIA, capture 1-2322-455, detection acridinium-1-903-430; NGAL Dimer High, 1500 ng/mL dimer calibrator
[19] = target: Wild-type recombinant human NGAL dimer expressed in CHO cells (human) (UniProt P80188); assay: … sandwich CMIA, capture 1-2322-455, detection acridinium-1-903-430; NGAL 50 ng/mL
[20] = target: Wild-type recombinant human NGAL dimer calibrators with TCEP in the reaction mixture (human) (UniProt P80188); assay: … sandwich CMIA, capture 1-2322-455, detection acridinium-1-903-430; TCEP in reaction; curve fit with monomer calibrators; target 600 ng/mL
[21] = target: Wild-type recombinant human NGAL dimer calibrators with TCEP in the reaction mixture (human) (UniProt P80188); assay: … sandwich CMIA, capture 1-2322-455, detection acridinium-1-903-430; TCEP in reaction; NGAL 1000 ng/mL
[22] = target: Wild-type recombinant human NGAL dimer expressed in CHO cells (human) (UniProt P80188); assay: … sandwich CMIA, capture 1-2322-455, detection acridinium-1-903-430; NGAL 250 ng/mL
[23] = target: Wild-type recombinant human NGAL monomer expressed in CHO cells (human) (UniProt P80188); assay: as above

% Increase due to DTT [1]: 277%
Curve Fit Results [2]: 161 ng/mL
Curve Fit Results [3]: 574 ng/mL
Curve Fit Results [4]: 598 ng/mL
NGAL concentration detected [5]: 13.7 ng/mL
Curve Fit Results [6]: 14.1 ng/mL
Curve Fit Results [7]: 49 ng/mL
Curve Fit Results [8]: 49.5 ng/mL
RLUs [9]: 31500 RLUs
RLUs [10]: 101000 RLUs
RLUs [11]: 101000 RLUs
Molecule: anti-NGAL antibody HYB 211-01 from AntibodyShop A/S, Gentofte, Denmark

RLUs [12]: 993000 RLUs
RLUs [13]: 1.93e+06 RLUs
NGAL concentration detected [14]: 33.9 ng/mL
Curve Fit Results [15]: 24.5 ng/mL
Curve Fit Results [16]: 126 ng/mL
Curve Fit Results [17]: 1030 ng/mL
NGAL concentration detected [18]: 309 ng/mL
RLUs [19]: 76800 RLUs
Curve Fit Results [20]: 292 ng/mL
RLUs [21]: 1.37e+06 RLUs
RLUs [22]: 336000 RLUs
RLUs [23]: 900000 RLUs
B1: antibody produced by murine hybridoma cell line 1-2322-455 having ATCC Accession No. PTA-8024 (antibody, V domains shown)
VH: EVQLVESGGGLVQPGGSLKLSCAASGFTFNNYYMSWVRQTPERRLEWVAYISSSGGSTYYSDSVRGRFTISRDTARNTLYLQMTSLKSEDTAMYYCARHFGDYSYFDYWGQGTTLTVSS
VL: DIQMTQSPASLSASVGETVTITCRASENFYSYLAWYQQKQGKSPQLLVYNAKTLAEGVPSRFSGSGSGTQFSLKINSLQPEDFGTYYCQHHYDIPLTFGAGTKLELKR
